This assay deals with recombinant soluble canine IL-10 receptor alpha chain (extra-cytoplasmic domain of canine IL-10R1) (canine). In words: SPR. On the technique in general: SPR reads the build-up and loss of mass on a sensor chip optically.

In the case of “recombinant canine IL-10 (from UniProt P48411 20-181) (ligand)”, the EC80 (binding equilibrium constant) is 51.4 nM, the RU at 31.2 ng/mL stood at 211 RU and the RU at 125 ng/mL (plateau) is 1720 RU.
